Assay results taken from PMC4718636.

Target: hAgo2 (Homo sapiens), Q9UKV8
Experiment: cleavage activity titration
Conditions: siRNA-bound hAgo2; remark: other sources report otherwise

Sequence of hAgo2 (Homo sapiens), Q9UKV8 (Q9UKV8 whole entry): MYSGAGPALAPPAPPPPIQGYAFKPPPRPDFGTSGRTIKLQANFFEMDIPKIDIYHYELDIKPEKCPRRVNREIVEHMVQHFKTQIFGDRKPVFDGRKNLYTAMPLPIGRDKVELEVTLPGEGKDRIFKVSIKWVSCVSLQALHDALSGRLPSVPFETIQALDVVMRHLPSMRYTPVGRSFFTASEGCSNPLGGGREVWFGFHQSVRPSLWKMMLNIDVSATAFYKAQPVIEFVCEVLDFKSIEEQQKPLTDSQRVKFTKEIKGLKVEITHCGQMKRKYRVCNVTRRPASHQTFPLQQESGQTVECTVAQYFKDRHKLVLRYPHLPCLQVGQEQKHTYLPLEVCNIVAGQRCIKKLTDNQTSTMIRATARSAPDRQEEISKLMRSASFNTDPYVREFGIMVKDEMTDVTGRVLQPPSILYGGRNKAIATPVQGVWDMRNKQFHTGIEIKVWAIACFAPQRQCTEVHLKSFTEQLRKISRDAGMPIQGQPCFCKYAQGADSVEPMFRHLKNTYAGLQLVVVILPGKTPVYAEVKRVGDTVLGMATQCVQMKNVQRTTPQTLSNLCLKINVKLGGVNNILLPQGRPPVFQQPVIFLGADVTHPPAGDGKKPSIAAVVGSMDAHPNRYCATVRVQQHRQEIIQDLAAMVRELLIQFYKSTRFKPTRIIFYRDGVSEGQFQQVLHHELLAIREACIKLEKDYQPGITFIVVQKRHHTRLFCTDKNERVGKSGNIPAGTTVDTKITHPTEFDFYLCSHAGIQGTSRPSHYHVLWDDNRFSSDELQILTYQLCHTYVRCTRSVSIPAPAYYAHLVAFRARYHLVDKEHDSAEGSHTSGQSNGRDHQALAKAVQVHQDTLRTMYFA

B1: hTRBP, Q15633 (protein)
chain: MSEEEQGSGTTTGCGLPSIEQMLAANPGKTPISLLQEYGTRIGKTPVYDLLKAEGQAHQPNFTFRVTVGDTSCTGQGPSKKAAKHKAAEVALKHLKGGSMLEPALEDSSSFSPLDSSLPEDIPVFTAAAAATPVPSVVLTRSPPMELQPPVSPQQSECNPVGALQELVVQKGWRLPEYTVTQESGPAHRKEFTMTCRVERFIEIGSGTSKKLAKRNAAAKMLLRVHTVPLDARDGNEVEPDDDHFSIGVGSRLDGLRNRGPGCTWDSLRNSVGEKILSLRSCSLGSLGALGPACCRVLSELSEEQAFHVSYLDIEELSLSGLCQCLVELSTQPATVCHGSATTREAARGEAARRALQYLKIMAGSK
Kd: 2 µM
